In US20240209114A1 (JIANGSU HENGRUI PHARMACEUTICALS, published 2024):
Like-named read-outs stand apart in the source and are kept apart here. Blank lines part the entries; values can stand above or below the binder they belong to.

Tests used:
MASP2 in human serum [1] = molecular target: T1, MASP2 in human serum (human, UniProt O00187 16-686); experiment: cell-based or functional assay
MASP2 in mouse serum = MASP2 in mouse serum (mouse, UniProt Q91WP0 20-685); experiment: cell-based or functional assay
MASP2 in monkey serum = MASP2 in monkey serum (monkey); experiment: cell-based or functional assay
[2] = molecular target: T2, Murine MASP2A (S632A) protein (murine, UniProt Q91WP0 16-685); experiment: SPR (Biacore 8K), antibody captured on anti-human Fc chip, antigen as analyte, 1:1 fit
Description: (§1) The binding properties of the anti-MASP2 antibodies were determined by the method of Biacore. […] An anti-human Fc IgG capture chip was used to capture the antibodies, then antigens with different concentrations were used as a mobile phase for the determination, and finally curve fitting was performed according to a 1:1 mode to obtain affinity values.

[3] = molecular target: T2, Murine MASP2A (S632A) protein; experiment: SPR (Biacore 8K), antibody captured on anti-human Fc chip, antigen as analyte
Description: as §1

MASP2 in human serum [4] = molecular target: T1, MASP2 in human serum; experiment: cell-based or functional assay; remark: listed apart in the source
MASP2 in human serum [5] = molecular target: T1, MASP2 in human serum; experiment: cell-based or functional assay; remark: listed apart in the source
[6] = molecular target: Monkey MASP2A (S633A) protein (monkey, UniProt O00187 16-686 (human entry)); experiment: SPR (Biacore 8K), antibody captured on anti-human Fc chip, antigen as analyte, 1:1 fit
Description: as §1

[7] = molecular target: T3, Human MASP2A (S633A) protein (human, UniProt O00187 16-686); experiment: as above
T3 construct: also called human enzymatic mutant human MASP2A (S633A)
Description: as §1

MASP2 in human serum [8] = molecular target: T1, MASP2 in human serum; experiment: cell-based or functional assay; remark: listed apart in the source

Chain of Monkey MASP2A (S633A) protein (O00187 other isoform, or with tags, fused parts or gaps S633A S633A): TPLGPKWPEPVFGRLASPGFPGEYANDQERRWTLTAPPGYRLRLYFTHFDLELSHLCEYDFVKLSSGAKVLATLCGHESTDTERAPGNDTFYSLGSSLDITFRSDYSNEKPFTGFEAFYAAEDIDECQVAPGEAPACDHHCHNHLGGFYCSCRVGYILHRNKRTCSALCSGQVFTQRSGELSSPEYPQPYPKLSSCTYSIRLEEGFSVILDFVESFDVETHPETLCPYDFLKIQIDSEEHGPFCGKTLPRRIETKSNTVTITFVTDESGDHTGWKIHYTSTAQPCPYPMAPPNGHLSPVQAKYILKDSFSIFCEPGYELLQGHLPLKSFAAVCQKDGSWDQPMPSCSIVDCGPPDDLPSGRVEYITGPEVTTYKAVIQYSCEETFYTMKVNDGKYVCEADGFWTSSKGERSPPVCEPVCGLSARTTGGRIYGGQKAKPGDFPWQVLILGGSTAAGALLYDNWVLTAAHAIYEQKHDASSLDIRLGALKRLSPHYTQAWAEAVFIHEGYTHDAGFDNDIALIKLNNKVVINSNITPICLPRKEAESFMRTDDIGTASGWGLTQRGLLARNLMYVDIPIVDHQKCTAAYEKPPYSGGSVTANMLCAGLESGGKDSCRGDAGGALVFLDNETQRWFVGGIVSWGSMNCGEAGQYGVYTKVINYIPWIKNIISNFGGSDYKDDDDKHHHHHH
T3 sequence (O00187 other isoform, or with tags, fused parts or gaps S633A S633A): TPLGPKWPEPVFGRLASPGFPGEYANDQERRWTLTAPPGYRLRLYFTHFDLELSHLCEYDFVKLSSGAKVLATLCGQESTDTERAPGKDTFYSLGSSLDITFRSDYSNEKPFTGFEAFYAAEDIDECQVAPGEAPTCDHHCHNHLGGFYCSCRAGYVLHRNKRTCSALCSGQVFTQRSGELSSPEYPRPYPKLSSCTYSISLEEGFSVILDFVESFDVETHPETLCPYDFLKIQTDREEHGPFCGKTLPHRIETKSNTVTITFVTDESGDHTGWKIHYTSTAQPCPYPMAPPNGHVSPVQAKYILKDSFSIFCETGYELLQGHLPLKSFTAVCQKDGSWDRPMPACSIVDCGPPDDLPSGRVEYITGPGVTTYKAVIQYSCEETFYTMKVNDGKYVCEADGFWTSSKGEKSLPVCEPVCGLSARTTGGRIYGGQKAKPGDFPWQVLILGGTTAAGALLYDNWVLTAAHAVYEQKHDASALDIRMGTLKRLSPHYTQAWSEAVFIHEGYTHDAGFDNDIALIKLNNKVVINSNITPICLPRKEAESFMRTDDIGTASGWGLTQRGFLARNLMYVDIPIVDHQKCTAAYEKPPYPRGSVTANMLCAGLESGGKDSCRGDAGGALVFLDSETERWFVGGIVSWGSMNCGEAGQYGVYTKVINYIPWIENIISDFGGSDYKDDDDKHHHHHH
T2 sequence (Q91WP0 other isoform, or with tags, fused parts or gaps S632A S632A): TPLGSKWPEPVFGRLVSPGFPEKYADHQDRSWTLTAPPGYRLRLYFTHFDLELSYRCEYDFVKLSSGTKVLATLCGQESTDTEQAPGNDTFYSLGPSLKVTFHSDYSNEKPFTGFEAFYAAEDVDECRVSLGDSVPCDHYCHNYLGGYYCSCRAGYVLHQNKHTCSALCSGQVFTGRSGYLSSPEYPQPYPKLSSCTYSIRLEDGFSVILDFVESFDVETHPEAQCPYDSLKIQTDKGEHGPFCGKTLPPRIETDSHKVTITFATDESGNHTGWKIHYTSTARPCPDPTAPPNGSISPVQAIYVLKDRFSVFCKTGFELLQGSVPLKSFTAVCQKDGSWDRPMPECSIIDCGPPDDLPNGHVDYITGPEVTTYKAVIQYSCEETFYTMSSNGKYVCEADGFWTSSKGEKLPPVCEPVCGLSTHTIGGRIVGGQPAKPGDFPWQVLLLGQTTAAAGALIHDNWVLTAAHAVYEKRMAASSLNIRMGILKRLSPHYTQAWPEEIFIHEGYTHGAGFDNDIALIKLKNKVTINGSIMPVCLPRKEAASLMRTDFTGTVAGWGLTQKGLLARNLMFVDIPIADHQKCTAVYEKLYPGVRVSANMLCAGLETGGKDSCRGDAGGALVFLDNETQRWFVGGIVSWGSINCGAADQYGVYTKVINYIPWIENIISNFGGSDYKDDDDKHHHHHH
T1 sequence (O00187 16-686 limits assumed): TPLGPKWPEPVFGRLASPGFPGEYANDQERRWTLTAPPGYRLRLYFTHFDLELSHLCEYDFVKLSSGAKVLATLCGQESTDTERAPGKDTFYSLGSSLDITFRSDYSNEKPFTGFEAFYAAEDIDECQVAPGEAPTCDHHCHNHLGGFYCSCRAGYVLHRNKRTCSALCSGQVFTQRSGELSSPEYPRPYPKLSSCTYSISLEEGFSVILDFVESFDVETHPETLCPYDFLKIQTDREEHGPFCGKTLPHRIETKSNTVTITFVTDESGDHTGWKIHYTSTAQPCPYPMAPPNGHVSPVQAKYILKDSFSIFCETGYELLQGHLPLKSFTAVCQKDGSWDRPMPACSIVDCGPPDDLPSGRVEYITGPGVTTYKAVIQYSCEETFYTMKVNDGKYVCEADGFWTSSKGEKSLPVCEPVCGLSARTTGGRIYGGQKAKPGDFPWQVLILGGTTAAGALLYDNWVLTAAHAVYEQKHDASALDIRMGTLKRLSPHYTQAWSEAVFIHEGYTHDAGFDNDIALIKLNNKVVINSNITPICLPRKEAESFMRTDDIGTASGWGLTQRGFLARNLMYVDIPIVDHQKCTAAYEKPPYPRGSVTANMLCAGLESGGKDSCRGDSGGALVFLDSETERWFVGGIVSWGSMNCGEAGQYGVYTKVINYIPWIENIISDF
Chain of MASP2 in mouse serum (Q91WP0 20-685 limits assumed): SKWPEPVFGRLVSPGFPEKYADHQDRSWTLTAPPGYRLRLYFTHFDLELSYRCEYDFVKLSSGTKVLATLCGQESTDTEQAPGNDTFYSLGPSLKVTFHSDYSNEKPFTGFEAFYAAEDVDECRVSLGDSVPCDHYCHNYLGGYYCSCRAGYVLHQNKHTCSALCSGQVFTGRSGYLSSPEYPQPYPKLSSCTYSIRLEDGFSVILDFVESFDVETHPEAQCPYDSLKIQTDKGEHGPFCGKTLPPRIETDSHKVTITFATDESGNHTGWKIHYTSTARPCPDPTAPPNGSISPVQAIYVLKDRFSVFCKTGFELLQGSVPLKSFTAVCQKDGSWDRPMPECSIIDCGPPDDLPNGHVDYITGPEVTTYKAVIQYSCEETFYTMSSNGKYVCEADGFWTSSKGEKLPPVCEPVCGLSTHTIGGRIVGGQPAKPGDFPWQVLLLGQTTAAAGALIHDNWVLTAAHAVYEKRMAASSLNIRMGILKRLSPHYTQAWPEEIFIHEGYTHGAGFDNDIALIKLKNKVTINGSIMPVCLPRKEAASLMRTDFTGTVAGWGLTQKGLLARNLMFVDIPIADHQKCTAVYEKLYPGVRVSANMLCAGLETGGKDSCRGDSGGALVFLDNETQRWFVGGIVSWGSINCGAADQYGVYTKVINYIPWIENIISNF

B3: 67D2 (antibody, V domains shown)
VH: DVQLQESGPGLVKPSQSLSLTCTVTGYSITSDYAWNWIRQFPGNKLEWMGYISYSGRTSYNPSLKSRISITRDTSKNQFFLQLNSVTTEDTATYYCAILYAMNFWGQGTSVTVSS
VL: DIVMTQSQKFMSTSVGDRVSVTCKASQNVDTNVAWYQQKPGQSPKALIYSASYRFSGVPDRFTGSGSGTDFTLTISNVQSEDLAEYFCQQYNSNPLTFGSGTKLEIK
- IC50 (µg/mL), inhibition of the lectin pathway in 1% human serum (C4c deposition on mannan) (MASP2 in human serum [1]): 0.559 µg/mL

B11: 29C1 (H2L2) (antibody, V domains shown)
VH: EVQLVESGGGLVKPGGSLRLSCAASGFTFSRFALSWVRQAPGKGLEWVAAVSRGGDYTYYPDSMKGRFTISRDNAKNSLYLQMNSLRAEDTAVYYCARHLYGYGHYYAMDYWGQGTTVTVSS
VL: DIVMTQSPSSLSASVGDRVTITCKASQDVNTAVAWYQQKPGKSPKLLIYSASYRYTGVPSRFSGSGSGTDFTFTISSLQPEDIATYYCQQHYSTPYTFGGGTKVEIK
- IC50 (µg/mL), inhibition of the lectin pathway in 90% human serum (C4c deposition on mannan) (MASP2 in human serum [5]): 0.555 µg/mL

B12: 29C1 (H1L2) (antibody, V domains shown)
VH: EVQLVESGGGLVKPGGSLRLSCAASGFTFSRFALSWVRQAPGKGLEWVSAVSRGGDYTYYPDSMKGRFTISRDNAKNSLYLQMNSLRAEDTAVYYCARHLYGYGHYYAMDYWGQGTTVTVSS
VL: DIVMTQSPSSLSASVGDRVTITCKASQDVNTAVAWYQQKPGKSPKLLIYSASYRYTGVPSRFSGSGSGTDFTFTISSLQPEDIATYYCQQHYSTPYTFGGGTKVEIK
- IC50 (µg/mL), inhibition of the lectin pathway in 90% human serum (C4c deposition on mannan) (MASP2 in human serum [5]): 0.534 µg/mL

B13: 29C1 (H2L1) (antibody, V domains shown)
VH: EVQLVESGGGLVKPGGSLRLSCAASGFTFSRFALSWVRQAPGKGLEWVAAVSRGGDYTYYPDSMKGRFTISRDNAKNSLYLQMNSLRAEDTAVYYCARHLYGYGHYYAMDYWGQGTTVTVSS
VL: DIQMTQSPSSLSASVGDRVTITCKASQDVNTAVAWYQQKPGKAPKLLIYSASYRYTGVPSRFSGSGSGTDFTFTISSLQPEDIATYYCQQHYSTPYTFGGGTKVEIK
- IC50 (µg/mL), inhibition of the lectin pathway in 90% human serum (C4c deposition on mannan) (MASP2 in human serum [5]): 0.471 µg/mL

B14: 29C1 (H3L2) (antibody, V domains shown)
VH: EVQLVESGGGLVKPGGSLRLSCAASGFTFSRFALSWVRQAPGKGLEWVAAVSRGGDYTYYPDSMKGRFTISRDNAKNSLYLQMNSLRAEDTAVYYCARHLYGYGHYYAMDYWGQGTTVTVSS
VL: DIVMTQSPSSLSASVGDRVTITCKASQDVNTAVAWYQQKPGKSPKLLIYSASYRYTGVPSRFSGSGSGTDFTFTISSLQPEDIATYYCQQHYSTPYTFGGGTKVEIK
- IC50 (µg/mL), inhibition of the lectin pathway in 90% human serum (C4c deposition on mannan) (MASP2 in human serum [5]): 0.515 µg/mL

B15: 29C1 (H3L1) (antibody, V domains shown)
VH: EVQLVESGGGLVKPGGSLRLSCAASGFTFSRFALSWVRQAPGKGLEWVAAVSRGGDYTYYPDSMKGRFTISRDNAKNSLYLQMNSLRAEDTAVYYCARHLYGYGHYYAMDYWGQGTTVTVSS
VL: DIQMTQSPSSLSASVGDRVTITCKASQDVNTAVAWYQQKPGKAPKLLIYSASYRYTGVPSRFSGSGSGTDFTFTISSLQPEDIATYYCQQHYSTPYTFGGGTKVEIK
- IC50 (µg/mL), inhibition of the lectin pathway in 90% human serum (C4c deposition on mannan) (MASP2 in human serum [5]): 0.526 µg/mL

B16: 29C1 (antibody, V domains shown)
VH: EVQLVESGGGLVKPGGSLKLSCAASGFTFSRFALSWVRQTPEKRLEWVAAVSRGGDYTYYPDSMKGRFTISRDNAMNTLYLQMSSLSSEDTAMYYCARHLYGYGHYYAMDYWGQGTSVTVSS
VL: DIVMTQSHKFMSTSVGDRVSITCKASQDVNTAVAWYQQKPGQSPKLLIYSASYRYTGVPDRFTGSGSGTDFTFTISSVQAEDLAVYYCQQHYSTPYTFGGGTKLEIK
- IC50 (µg/mL), inhibition of the lectin pathway in 1% human serum (C4c deposition on mannan) (MASP2 in human serum [8]): 0.086 µg/mL

Now from value to binder:

- IC50 (µg/mL), inhibition of the lectin pathway in 1% human serum (C4c deposition on mannan) (MASP2 in human serum [1]): 0.63 µg/mL
B1: 77H11 (antibody, V domains shown)
VH: DVQLQESGPGLVKPSQSLSLTCTVTGYSITSDYAWNWIRQFPGNKLEWMGYISYSGRTSYNPSLKSRISITRDTSKNQFFLQLNSVTTEDTATYYCAVLYALDYWGQGTSVTVSS
VL: DIVMTQSQKFMSTSVGDRVSVTCKASQNVDTNVAWYQQKPGQSPKALIYSASYRYSGVPDRFTGSGSGTDFTLTISDVQSEDLAEYFCQQYNSNPLTFGSGTKLEIK

- IC50 (µg/mL), inhibition of the lectin pathway in 1% human serum (C4c deposition on mannan) (MASP2 in human serum [1]): 0.738 µg/mL
B2: 67E8 (antibody, V domains shown)
VH: DVQLQESGPGLVKPSQSLSLTCTVTGYSITSDYAWNWIRQFPGNKLEWMGYISYSGRTSYNPSLKSRISITRDTSKNQFFLQLNSVTTEDTATYYCAILYAMDYWGQGTSVTVSS
VL: DIVMTQSQKFMSTSVGDRVSVTCKASQNVDTNVAWYQQKPGQSPKALIYSASYRYSGVPDRFTGSGSGTDFTLTISNVQSEDLAEYFCQQYNSNPLTFGSGTKLEIK

- 90% mouse serum IC50 (µg/mL), inhibition of the lectin pathway (C4c deposition on mannan) (MASP2 in mouse serum): 3.74 µg/mL
- 90% monkey serum IC50 (µg/mL), inhibition of the lectin pathway (C4c deposition on mannan) (MASP2 in monkey serum): 26.6 µg/mL
- Kd [2]: 0.233 nM
B4: OMS721 (antibody, human IgG4 S228P, lambda, V domains shown)
VH: QVTLKESGPVLVKPTETLTLTCTVSGFSLSRGKMGVSWIRQPPGKALEWLAHIFSSDEKSYRTSLKSRLTISKDTSKNQVVLTMTNMDPVDTATYYCARIRRGGIDYWGQGTLVTVSS
VL: QPVLTQPPSLSVSPGQTASITCSGEKLGDKYAYWYQQKPGQSPVLVMYQDKQRPSGIPERFSGSNSGNTATLTISGTQAMDEADYYCQAWDSSTAVFGGGTKLTVLG
notes: Positive control, synthesized according to WO2012151481A; also called narsoplimab; positive control antibody

- binding result [3]: no binding
- 90% human serum IC50 (µg/mL), inhibition of the lectin pathway (C4c deposition on mannan) (MASP2 in human serum [4]): 0.97 µg/mL
- 90% monkey serum IC50 (µg/mL), inhibition of the lectin pathway (C4c deposition on mannan) (MASP2 in monkey serum): 21.6 µg/mL
- IC50 (µg/mL), inhibition of the lectin pathway in 90% human serum (C4c deposition on mannan) (MASP2 in human serum [5]): 0.624 µg/mL
- Kd [6]: 0.14 nM
- koff [6]: 8.63e-05 s⁻¹
- kon [6]: 616000 M⁻¹ s⁻¹
B5: 77H11 (H3L1) (antibody, human IgG4 S228P, kappa, V domains shown)
VH: EVQLQESGPGLVKPSQTLSLTCTVSGYSITSDYAWNWIRQPPGKGLEWIGYISYSGRTSYNPSLKSRVTISRDTSKNQFSLKLSSVTAADTAVYYCAVLYALDYWGQGTTVTVSS
VL: DIQMTQSPSSLSASVGDRVTITCKASQNVDTNVAWYQQKPGKVPKALIYSASYRYSGVPSRFSGSGSGTDFTLTISSLQPEDVATYYCQQYNSNPLTFGQGTKLEIKR
notes: Humanized 77H11, full-length human IgG4 (S228P); also called 77H1(H3L1); 77H1 (H3L1)

- IC50 (µg/mL), inhibition of the lectin pathway in 90% human serum (C4c deposition on mannan) (MASP2 in human serum [5]): 0.67 µg/mL
B6: 77H11 (H4L1) (antibody, V domains shown)
VH: EVQLQESGPGLVKPSQTLSLTCTVSGYSITSDYAWNWIRQPPGNKLEWMGYISYSGRTSYNPSLKSRITISRDTSKNQFSLKLSSVTAADTAVYYCAVLYALDYWGQGTTVTVSS
VL: DIQMTQSPSSLSASVGDRVTITCKASQNVDTNVAWYQQKPGKVPKALIYSASYRYSGVPSRFSGSGSGTDFTLTISSLQPEDVATYYCQQYNSNPLTFGQGTKLEIK

- IC50 (µg/mL), inhibition of the lectin pathway in 90% human serum (C4c deposition on mannan) (MASP2 in human serum [5]): 0.454 µg/mL
B7: 77H11 (H3L2) (antibody, V domains shown)
VH: EVQLQESGPGLVKPSQTLSLTCTVSGYSITSDYAWNWIRQPPGKGLEWIGYISYSGRTSYNPSLKSRVTISRDTSKNQFSLKLSSVTAADTAVYYCAVLYALDYWGQGTTVTVSS
VL: DIQMTQSPSSLSASVGDRVTITCKASQNVDTNVAWYQQKPGKSPKALIYSASYRYSGVPSRFSGSGSGTDFTLTISSLQPEDVAEYYCQQYNSNPLTFGQGTKLEIK

- IC50 (µg/mL), inhibition of the lectin pathway in 90% human serum (C4c deposition on mannan) (MASP2 in human serum [5]): 1.58 µg/mL
B8: 77H11 (H2L2) (antibody, V domains shown)
VH: EVQLQESGPGLVKPSQTLSLTCTVSGYSITSDYAWNWIRQPPGKGLEWIGYISYSGRTSYNPSLKSRVTISVDTSKNQFSLKLSSVTAADTAVYYCAVLYALDYWGQGTTVTVSS
VL: DIQMTQSPSSLSASVGDRVTITCKASQNVDTNVAWYQQKPGKSPKALIYSASYRYSGVPSRFSGSGSGTDFTLTISSLQPEDVAEYYCQQYNSNPLTFGQGTKLEIK

- IC50 (µg/mL), inhibition of the lectin pathway in 90% human serum (C4c deposition on mannan) (MASP2 in human serum [5]): 0.443 µg/mL
B9: 77H11 (H4L2) (antibody, V domains shown)
VH: EVQLQESGPGLVKPSQTLSLTCTVSGYSITSDYAWNWIRQPPGNKLEWMGYISYSGRTSYNPSLKSRITISRDTSKNQFSLKLSSVTAADTAVYYCAVLYALDYWGQGTTVTVSS
VL: DIQMTQSPSSLSASVGDRVTITCKASQNVDTNVAWYQQKPGKSPKALIYSASYRYSGVPSRFSGSGSGTDFTLTISSLQPEDVAEYYCQQYNSNPLTFGQGTKLEIK

- binding result [3]: no binding
- 90% human serum IC50 (µg/mL), inhibition of the lectin pathway (C4c deposition on mannan) (MASP2 in human serum [4]): 1.18 µg/mL
- 90% monkey serum IC50 (µg/mL), inhibition of the lectin pathway (C4c deposition on mannan) (MASP2 in monkey serum): 15.3 µg/mL
- IC50 (µg/mL), inhibition of the lectin pathway in 90% human serum (C4c deposition on mannan) (MASP2 in human serum [5]): 0.477 µg/mL
- Kd [7]: 0.0716 nM
- koff [7]: 2.94e-05 s⁻¹
- kon [7]: 410000 M⁻¹ s⁻¹
- Kd [6]: 0.193 nM
- koff [6]: 6.83e-05 s⁻¹
- kon [6]: 354000 M⁻¹ s⁻¹
B10: 29C1 (H1L1) (antibody, human IgG4 S228P, kappa, V domains shown)
VH: EVQLVESGGGLVKPGGSLRLSCAASGFTFSRFALSWVRQAPGKGLEWVSAVSRGGDYTYYPDSMKGRFTISRDNAKNSLYLQMNSLRAEDTAVYYCARHLYGYGHYYAMDYWGQGTTVTVSS
VL: DIQMTQSPSSLSASVGDRVTITCKASQDVNTAVAWYQQKPGKAPKLLIYSASYRYTGVPSRFSGSGSGTDFTFTISSLQPEDIATYYCQQHYSTPYTFGGGTKVEIKR
notes: Humanized 29C1, full-length human IgG4 (S228P); also called 29C1 (HIL1)
